In publication PMC9201815, “Rapid Quantification of C. difficile Glutamate Dehydrogenase and Toxin B (TcdB) with a NanoBiT Split-Luciferase Assay” (Analytical Chemistry, 2022) one finds Kd, koff and kon data, which are given here for three molecules.

The target of assay [1] is inactivated toxoid B (TxB) (C. difficile, inactivated toxoid (how it was inactivated is not stated)). The assay is described as follows: SPR. Particulars: both partners purified.
A further assay has as its target Affimer 4. The assay is described as follows: SPR; biotinylated Affimer/nanobody immobilised on a streptavidin chip, titrated with serial dilutions of analyte; fit to 1:1 Langmuir model.

Affimer 4, sequence (main, as listed by the source): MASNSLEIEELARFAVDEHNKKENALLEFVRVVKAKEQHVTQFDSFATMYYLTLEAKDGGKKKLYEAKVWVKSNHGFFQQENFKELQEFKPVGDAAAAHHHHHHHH

B1: Nanobody E3 (VHH)
chain: QVQLVESGGGLVQTGGSLRLSCASSGSIAGFETVTWSRQAPGKSLQWVASMTKTNNEIYSDSVKGRFIISRDNAKNTVYLQMNSLKPEDTGVYFCKGPELRGQGIQVTVSS
notes: also called TcdB nanobody E3
With B1, in assay [1], the Kd is 0.0025 µM, the koff amounted to 0.00025 s⁻¹ and the on-rate constant (kon) is 100000 M⁻¹ s⁻¹.

B2: Nanobody 7F (VHH)
VHH: QVQLVESGGGLVEAGGSLRLSCVVTGSSFSTSTMAWYRQPPGKQREWVASFTSGGAIKYTDSVKGRFTMSRDNAKKMTYLQMENLKPEDTAVYYCALHNAVSGSSWGRGTQVTVSS
notes: also called TcdB nanobody 7F
For B2, in assay [1], the Kd amounted to 0.033 µM, the off-rate constant (koff) was 0.0009 s⁻¹ and the kon is 28000 M⁻¹ s⁻¹.

B3: C. difficile glutamate dehydrogenase (GDH) (enzyme)
chain: MSGKDVNVFEMAQSQVKNACDKLGMEPAVYELLKEPMRVIEVSIPVKMDDGSIKTFKGFRSQHNDAVGPTKGGIRFHQNVSRDEVKALSIWMTFKCSVTGIPYGGGKGGIIVDPSTLSQGELERLSRGYIDGIYKLIGEKVDVPAPDVNTNGQIMSWMVDEYNKLTGQSSIGVITGKPVEFGGSLGRTAATGFGVAVTAREAAAKLGIDMKKAKIAVQGIGNVGSYTVLNCEKLGGTVVAMAEWCKSEGSYAIYNENGLDGQAMLDYMKEHGNLLNFPGAKRISLEEFWASDVDIVIPAALENSITKEVAESIKAKLVCEAANGPTTPEADEVFAERGIVLTPDILTNAGGVTVSYFEWVQNLYGYYWSEEEVEQKEEIAMVKAFESIWKIKEEYNVTMREAAYMHSIKKVAEAMKLRGWY
In the assay with Affimer 4, B3 returned a Kd of 0.019 µM, a koff of 0.00081 s⁻¹ and a kon of 44000 M⁻¹ s⁻¹.
